Results on 15 molecules are retold here after patent US20240132603A1 (HARBOUR BIOMED US, published 2024).

Test [1] concerns the target T1, cynomolgus monkey CCR8 (cynomolgus monkey, UniProt G7NYJ2 1-355).
T1 construct: whole, on cells; also called CynoCCR8
Put plainly: FACS, CHO-K1-CynoCCR8 cells. Here is the method:
(§1) Cells overexpressing cynomolgus monkey CCR8, CHO-K1-CynoCCR8, were digested with pancreatin, counted and resuspended to a cell density of 1E6 cells/mL. The cell suspension was added to a 96-well V-bottom plate at 100 μL/well and centrifuged at 300 g for 5 min, and the supernatant was discarded. The anti-CCR8 antibodies provided herein was used as a primary antibody and diluted in a 5-fold gradient with an FACS buffer (DPBS containing 2% FBS) from 200 nM. The diluted primary antibody was added at 100 μL/well to resuspend the cells, and the mixture was incubated at 4° C. for 1 h. The plate was washed twice with DPBS and centrifuged at 300×g for 5 min, and the supernatant was discarded. The secondary antibody diluted in a 1:1000 ratio with an FACS buffer was added at 100 μL/well to suspend the cells, and the mixture was incubated at 4° C. for 40 min. The plate was washed twice with DPBS and centrifuged at 300×g for 5 min, and the supernatant was discarded. DPBS was added at 200 μL/well to suspend the cells, and the mixture was loaded on an FACS machine for analysis.

The target in test [2] is T2, human CCR8 (human, UniProt P51685 1-355).
T2 construct: whole, on cells; construct used for the overexpressing cell lines is not described; also called hCCR8
T2 sequence (P51685 whole entry): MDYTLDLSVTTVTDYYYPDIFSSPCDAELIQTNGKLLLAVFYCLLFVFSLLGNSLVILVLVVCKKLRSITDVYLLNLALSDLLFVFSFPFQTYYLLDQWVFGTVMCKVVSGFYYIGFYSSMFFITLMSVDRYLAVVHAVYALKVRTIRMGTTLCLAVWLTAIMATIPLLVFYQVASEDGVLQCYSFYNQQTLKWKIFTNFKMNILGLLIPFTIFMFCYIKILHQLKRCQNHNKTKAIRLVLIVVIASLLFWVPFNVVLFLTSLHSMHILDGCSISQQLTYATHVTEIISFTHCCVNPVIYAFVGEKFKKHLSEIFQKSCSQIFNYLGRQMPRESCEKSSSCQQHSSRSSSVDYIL
Put plainly: FACS, CHO-K1-hCCR8 cells. How it is done:
as §1, with “human CCR8” for “cynomolgus monkey CCR8, CHO-K1-CynoCCR8,”
(In flow cytometry, cells or beads pass a laser one at a time.)

Test [3] deals with T1, cynomolgus monkey CCR8. The experiment in a line: FACS, CHO-K1-CynoCCR8 cells. How it is done: as §1
The source holds these as a separate data set.

Test [4] deals with T2, human CCR8. Put plainly: FACS, CHO-K1-hCCR8 cells. How it is done: as §1, with “human CCR8” for “cynomolgus monkey CCR8, CHO-K1-CynoCCR8,”
This is another data set of the same source.

Where two headings read alike, the source gives them in different places.

T1 sequence (G7NYJ2 entry or part of it): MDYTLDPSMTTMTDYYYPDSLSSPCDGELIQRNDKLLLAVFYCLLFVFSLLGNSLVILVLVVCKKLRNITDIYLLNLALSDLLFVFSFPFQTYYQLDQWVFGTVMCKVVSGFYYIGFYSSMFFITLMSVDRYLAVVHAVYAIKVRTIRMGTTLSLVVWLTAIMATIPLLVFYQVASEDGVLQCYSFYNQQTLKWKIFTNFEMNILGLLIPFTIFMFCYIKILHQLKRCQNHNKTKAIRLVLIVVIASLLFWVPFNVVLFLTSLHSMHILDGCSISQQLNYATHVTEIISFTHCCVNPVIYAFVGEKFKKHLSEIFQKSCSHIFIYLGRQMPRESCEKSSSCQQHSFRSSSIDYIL

B1: PR004331 (antibody, human IgG1, kappa, V domains shown)
VH: EVQLVESGGGLVKPGGSLRLSCAASGFTFNTNAMNWVRQAPGKGLEWVGRIRSKSNNYATYYADSVKDRFTISRDDSKSTLYLQMNSLKTEDTAVYYCVRGKENGNYYAMDFWGQGTTVTVSS
VL: DIVMTQAAPSVPVTPGESVSISCRSSKSLLHSNGKIYLYWFLQRPGQSPQLLIYRMSNLASGVPDRFSGSGSGTAFTLRISRVEAEDVGVYYCMQHLEYPLTFGAGTKLEIKR
notes: heavy-chain semi-humanized variant of PR004128, IgG1 with DE mutation
For the molecule B1, the EC50 in test [1] came to 6.99 nM; in test [2], 1.03 nM.

B2: PR004335 (antibody, human IgG1, kappa, V domains shown)
VH: EVQLVESGGGLVQPGGSLRLSCAASGFTFNTYAMNWVRQAPGKGLEWVSRIRSKSNNYATYYADSVKDRFTISRDDSKSTLYLQMNSLRAEDTAVYYCVRGKENGNYYAMDYWGQGTTVTVSS
VL: DIVMTQAAPSVPVTPGESVSISCRSSKSLLHSNGKIYLYWFLQRPGQSPQLLIYRMSNLASGVPDRFSGSGSGTAFTLRISRVEAEDVGVYYCMQHLEYPLTFGAGTKLEIKR
notes: as for B1
As for B2, the figures for the EC50 in test [1] and in test [2] were 3.52 nM and 0.97 nM, respectively.

B3: PR004334 (antibody, human IgG1, kappa, V domains shown)
VH: EVQLVESGGGLVQPGGSLRLSCAASGFTFNTNAMNWVRQAPGKGLEWVSRIRSKSNNYATYYADSVKDRFTISRDDSKSTLYLQMNSLRAEDTAVYYCVRGKENGNYYAMDFWGQGTTVTVSS
VL: DIVMTQAAPSVPVTPGESVSISCRSSKSLLHSNGKIYLYWFLQRPGQSPQLLIYRMSNLASGVPDRFSGSGSGTAFTLRISRVEAEDVGVYYCMQHLEYPLTFGAGTKLEIKR
notes: as for B1
Consider B3, for which the EC50 worked out at 7.5 nM in test [1] and 1.33 nM in test [2].

B4: PR004333 (antibody, human IgG1, kappa, V domains shown)
VH: EVQLVESGGGLVQPGGSLRLSCAASGFTFNTYAMNWVRQAPGKGLEWVSRIRSKSNNYATYYADSVKDRFTISRDDSKSTLYLQMNSLRAEDTAVYYCVRGKENGNYYAMDFWGQGTTVTVSS
VL: DIVMTQAAPSVPVTPGESVSISCRSSKSLLHSNGKIYLYWFLQRPGQSPQLLIYRMSNLASGVPDRFSGSGSGTAFTLRISRVEAEDVGVYYCMQHLEYPLTFGAGTKLEIKR
notes: as for B1
For B4, the EC50 in test [1] was found to be 4.97 nM; in test [2], 0.91 nM.

B5: PR006157 (antibody, human IgG1, kappa, V domains shown)
VH: EVQLVESGGGLVKPGGSLRLSCAASGFTFSTYAMNWVRQAPGKGLEWVGRIRSKSNYYATYYADSVKDRFTISRDDSKSTLYLQMNSLKTEDTAVYYCVRGKEIGNYYAMDFWGQGTTVTVSS
VL: DIVMTQSPLSLPVTLGQPASISCRSSKSLLHSNAKIYLYWFQQRPGQSPRLLIYRMSNLASGVPDRFSGSGSGTDFTLKISRVEAEDVGVYYCMQHLEYPLTFGQGTKLEIKR
Regarding B5, the figures for the EC50 in test [3] and in test [4] were 0.42 nM and 0.73 nM, respectively.

B6: PR004332 (antibody, human IgG1, kappa, V domains shown)
VH: EVQLVESGGGLVKPGGSLRLSCAASGFTFNTYAMNWVRQAPGKGLEWVGRIRSKSNNYATYYADSVKDRFTISRDDSKSTLYLQMNSLKTEDTAVYYCVRGKENGNYYAMDYWGQGTTVTVSS
VL: DIVMTQAAPSVPVTPGESVSISCRSSKSLLHSNGKIYLYWFLQRPGQSPQLLIYRMSNLASGVPDRFSGSGSGTAFTLRISRVEAEDVGVYYCMQHLEYPLTFGAGTKLEIKR
notes: as for B1
For B6, the EC50 in test [1] is 2.75 nM; in test [2] it was 0.73 nM.

B7: PR004339 (antibody, human IgG1, kappa, V domains shown)
VH: EVQLVESGGGLVQPKGSLKLSCAASGFTFNTYAMNWVRQAPGKGLEWVARIRSKSNNYATYYADSVKDRFTISRDDSQSMLYLQMNNLKTEDTAMYYCVRGKENGNYYAMDFWGQGTSVTVSA
VL: DIVMTQSPLSLPVTPGEPASISCRSSKSLLHSNGKIYLYWFLQKPGQSPQLLIYRMSNLASGVPDRFSGSGSGTDFTLKISRVEAEDVGVYYCMQHLEYPLTFGQGTKLEIKR
notes: light-chain semi-humanized variant of PR004128, IgG1 with DE mutation
For the molecule B7, the EC50 worked out at 9.58 nM in test [1] and 0.95 nM in test [2].

B8: PR006156 (antibody, human IgG1, kappa, V domains shown)
VH: EVQLVESGGGLVKPGGSLRLSCAASGFTFSTYAMNWVRQAPGKGLEWVGRIRSKSNNYATYYADSVKDRFTISRDDSKSTLYLQMNSLKTEDTAVYYCVRGKEIGNYYAMDFWGQGTTVTVSS
VL: DIVMTQSPLSLPVTLGQPASISCRSSKSLLHSNAKIYLYWFQQRPGQSPRLLIYRMSNLASGVPDRFSGSGSGTDFTLKISRVEAEDVGVYYCMQHLEYPLTFGQGTKLEIKR
Consider B8, for which the EC50 in test [3] was 0.3 nM; in test [4], 0.38 nM.

B9: PR004340 (antibody, human IgG1, kappa, V domains shown)
VH: EVQLVESGGGLVQPKGSLKLSCAASGFTFNTYAMNWVRQAPGKGLEWVARIRSKSNNYATYYADSVKDRFTISRDDSQSMLYLQMNNLKTEDTAMYYCVRGKENGNYYAMDFWGQGTSVTVSA
VL: DIVMTQSPLSLPVTPGEPASISCRSSKSLLHSNGNTYLYWFLQKPGQSPQLLIYRMSNLASGVPDRFSGSGSGTDFTLKISRVEAEDVGVYYCMQHLEYPLTFGQGTKLEIKR
notes: as for B7
On to B9, for which the figures for the EC50 in test [1] and in test [2] were 5.35 nM and 1.06 nM, respectively.

B10: PR006161 (antibody, human IgG1, kappa, V domains shown)
VH: EVQLVESGGGLVKPGGSLRLSCAASGFTFSTYAMNWVRQAPGKGLEWVGRIRSKSNYYATYYADSVKDRFTISRDDSKSTLYLQMNSLKTEDTAVYYCVRGKEHGKYYAMDFWGQGTTVTVSS
VL: DIVMTQSPLSLPVTLGQPASISCRSSKSLLHSNAKIYLYWFQQRPGQSPRLLIYRMSNLASGVPDRFSGSGSGTDFTLKISRVEAEDVGVYYCMQHLEYPLTFGQGTKLEIKR
For the molecule B10, the figures for the concentration giving a half-maximal response (EC50) in test [3] and in test [4] were 0.43 nM and 0.38 nM, respectively.

B11: PR006154 (antibody, human IgG1, kappa, V domains shown)
VH: EVQLVESGGGLVKPGGSLRLSCAASGFTFSTYAMNWVRQAPGKGLEWVGRIRSKSNNYATYYADSVKDRFTISRDDSKSTLYLQMNSLKTEDTAVYYCVRGKEHGNYYAMDFWGQGTTVTVSS
VL: DIVMTQSPLSLPVTLGQPASISCRSSKSLLHSNAKIYLYWFQQRPGQSPRLLIYRMSNLASGVPDRFSGSGSGTDFTLKISRVEAEDVGVYYCMQHLEYPLTFGQGTKLEIKR
Consider B11, for which the results for the EC50 in test [3] and in test [4] were 0.31 nM and 0.38 nM, respectively.

B12: PR005565AF (antibody, human IgG1, kappa)
heavy: not shown
light: DIVMTQSPLSLPVTLGQPASISCRSSKSLLHSNAKIYLYWFQQRPGQSPRLLIYRMSNLASGVPDRFSGSGSGTDFTLKISRVEAEDVGVYYCMQHLEYPLTFGQGTKLEIKRTVAAPSVFIFPPSDEQLKSGTASVVCLLNNFYPREAKVQWKVDNALQSGNSQESVTEQDSKDSTYSLSSTLTLSKADYEKHKVYACEVTHQGLSSPVTKSFNRGEC
modifications: afucosylated (AF) Fc glycan, produced with 2-fluoro peracetylated fucose
notes: also called PR005565F
Turning to B12, the EC50 in test [3] turned out to be 0.62 nM; in test [4], 0.38 nM.

B13: PR004343 (antibody, human IgG1, kappa, V domains shown)
VH: EVQLVESGGGLVQPKGSLKLSCAASGFTFNTYAMNWVRQAPGKGLEWVARIRSKSNNYATYYADSVKDRFTISRDDSQSMLYLQMNNLKTEDTAMYYCVRGKENGNYYAMDFWGQGTSVTVSA
VL: DIVMTQSPLSLPVTLGQPASISCRSSKSLLHSNGKIYLYWFQQRPGQSPRLLIYRMSNLASGVPDRFSGSGSGTDFTLKISRVEAEDVGVYYCMQHLEYPLTFGQGTKLEIKR
notes: as for B7
Consider B13, for which the half-maximal effective concentration (EC50) in test [1] is 6.38 nM; in test [2], 1.08 nM.

B14: PR004345 (antibody, human IgG1, kappa, V domains shown)
VH: EVQLVESGGGLVQPKGSLKLSCAASGFTFNTYAMNWVRQAPGKGLEWVARIRSKSNNYATYYADSVKDRFTISRDDSQSMLYLQMNNLKTEDTAMYYCVRGKENGNYYAMDFWGQGTSVTVSA
VL: DIVMTQSPLSLPVTLGQPASISCRSNKSLLHSNGNTYLYWFQQRPGQSPRLLIYRMSNLASGVPDRFSGSGSGTDFTLKISRVEAEDVGVYYCMQHLEYPLTFGQGTKLEIKR
notes: as for B7
B14: the results for the EC50 in test [1] and in test [2] were 5.96 nM and 1.12 nM, respectively.

B15: PR004344 (antibody, human IgG1, kappa, V domains shown)
VH: EVQLVESGGGLVQPKGSLKLSCAASGFTFNTYAMNWVRQAPGKGLEWVARIRSKSNNYATYYADSVKDRFTISRDDSQSMLYLQMNNLKTEDTAMYYCVRGKENGNYYAMDFWGQGTSVTVSA
VL: DIVMTQSPLSLPVTLGQPASISCRSSKSLLHSNGNTYLYWFQQRPGQSPRLLIYRMSNLASGVPDRFSGSGSGTDFTLKISRVEAEDVGVYYCMQHLEYPLTFGQGTKLEIKR
notes: as for B7
As for B15, the results for the EC50 in test [1] and in test [2] were 3.51 nM and 1 nM, respectively.

Usually EC50 stands for the midpoint of the concentration-response curve.
